Measurements as given in the supplement of paper PMC12042874.
± gives the uncertainty stated by the source.

Assay: amyloid nucleation score (Sup35N fusion, yeast selection) (log enrichment); library NNK1; higher = more nucleation; inactive = no reads after selection
Summary of the method: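 In psi-negative yeast, Sup35N fusions carrying peptides of 20 random codons were induced with 100 μM copper sulfate for 24 hours. The cells then grew 7 days at 30°C on medium lacking adenine and uracil, and plasmid inserts from input and output were Illumina-sequenced, excluding sequences with under 100 input reads. Nucleation score is the DiMSum log enrichment of output over input reads, centred on the mode score of non-aggregating sequences.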
SECIVFYIPTYKHD showed an amyloid nucleation score of 7.909 ± 0.059. Work on SEFHFMRT yielded an amyloid nucleation score of -0.482 ± 1.7. For SEHILFLCCMMVGSVVSSAC, the amyloid nucleation score was “inactive”. For SEKRR, the amyloid nucleation score was 0.075 ± 0.26. SERTMMSDKLSKRSLPCSLR showed an amyloid nucleation score of -0.717 ± 0.63. With SESKGHHKCRRALLYRGM the amyloid nucleation score was 0.418 ± 1.2. For SEVSISGVVYFDHREVVEV, the amyloid nucleation score was -0.165 ± 1.4. Substance SEYTLLTFKSFGNRAPHFVG has an amyloid nucleation score of 1.75 ± 0.19. Substance SFAQLMGGAVSHYVFLPWNA has an amyloid nucleation score of -0.525 ± 0.85. In the case of SFDADFSFRVRVFYDQSISI, the amyloid nucleation score is reported as -0.035 ± 0.48. SFDKARRARGRSLAWML showed an amyloid nucleation score of 0.072 ± 0.54. In the case of SFGANYTLILTVIIQRLADQ, the amyloid nucleation score is reported as 6.31 ± 0.083. For SFGPIVCGFVVKRMWKCNIG, the amyloid nucleation score was 3.63 ± 0.12. For SFGTQPGQISVN, the amyloid nucleation score was -0.856 ± 2.4. In the case of SFIDDCP, the amyloid nucleation score is reported as “inactive”. SFIFLILMSAWFPFMRVTFG showed an amyloid nucleation score of 0.198 ± 0.64. SFKPSSFKFTIT gave an amyloid nucleation score of -0.605 ± 0.41. With SFLLKKKVPWPFFCTCMLVG the amyloid nucleation score was -0.575 ± 1.5. Work on SFNKDRKIYTRPELRFMMFL yielded an amyloid nucleation score of -0.707 ± 1.7. In the case of SFRYFKLSCYFFFLVFAVFF, the amyloid nucleation score is reported as -1.02 ± 2.4. SFRYVGCWYMARWFS showed an amyloid nucleation score of -0.497 ± 0.3. SFTGVDHSQLNDFSATNNAS showed an amyloid nucleation score of 0.653 ± 0.55. SFTNDSSRSWRHTRLGSCCE showed an amyloid nucleation score of 1.48 ± 0.63. In the case of SFVRGFYVNFRFSKGILDMF, the amyloid nucleation score is reported as -0.082 ± 0.32. For SGCCVASFYHRDSILSCEKA, the amyloid nucleation score was 0.446 ± 0.58. SGCGPNGIRFWVRLEVGNTT gave an amyloid nucleation score of 0.016 ± 0.33. Work on SGCRYSAIVGSPMRCNMYRS yielded an amyloid nucleation score of -0.756 ± 2.4. Substance SGMHHHDKARNRG has an amyloid nucleation score of 1.26 ± 0.59. In the case of SGMYSMYQDKT, the amyloid nucleation score is reported as -0.716 ± 0.5. SGNTGPFRCARAADNSNFKG gave an amyloid nucleation score of -0.922 ± 0.67. With SGPGDKVAISMNIY the amyloid nucleation score was 5.16 ± 0.087. SGRPLNNVWGVTWEIMRLSL showed an amyloid nucleation score of -0.839 ± 0.86. SGRRTYMLRMLQWVGVIAYR showed an amyloid nucleation score of -2.36 ± 2.4. Work on SGVLVGYHRDLDVDMNLNPM yielded an amyloid nucleation score of -0.419 ± 0.4. With SGVWNEFEGCWMVDDVIDPL the amyloid nucleation score was 0.268 ± 0.44. SGWCGSTFSCERNPTVYSSC showed an amyloid nucleation score of 1.96 ± 0.26. With SGYMWMFMSHRNEFRTEVRW the amyloid nucleation score was 0.385 ± 0.37. With SHGRMCQLEYWSLRKGRGAG the amyloid nucleation score was 0.229 ± 0.59. SHIRSWVRSAHAWYIWHGKT showed an amyloid nucleation score of 0.466 ± 0.44. SHPVIL gave an amyloid nucleation score of 0.039 ± 0.29. SHREMPSPIGMVSSSFMRVT gave an amyloid nucleation score of 0.539 ± 0.9. Substance SHSTFAVQMRA has an amyloid nucleation score of 8.273 ± 0.047. SHVVCVCLRDLPRIFVFVEK gave an amyloid nucleation score of 6.63 ± 0.07. Substance SIANNKRTKTVGLMLSCRSS has an amyloid nucleation score of 3.79 ± 0.14. In the case of SIDRIRVSVHPLAFKIYLDV, the amyloid nucleation score is reported as 0.497 ± 0.43. Substance SIDTPYFALNRCALIHTSFT has an amyloid nucleation score of 0.825 ± 0.52. SIFRTKTTFLRNVQLEWLGG gave an amyloid nucleation score of -0.211 ± 0.86. For SIFWSRTVLLMN, the amyloid nucleation score was 5.97 ± 0.1. In the case of SIGNKYKSIVWYFKCCLANL, the amyloid nucleation score is reported as 5.97 ± 0.066. SIGPFKTYCTAAWP gave an amyloid nucleation score of -0.502 ± 0.36. For SIHGGFYTLPE, the amyloid nucleation score was 1.15 ± 0.51. SIHVGVSRG showed an amyloid nucleation score of 0.806 ± 0.35. For SILSWLFSWTMLEEVI, the amyloid nucleation score was “inactive”. For SIMSFH, the amyloid nucleation score was “inactive”. Substance SIQCKKFGGIWCTDTRSIGP has an amyloid nucleation score of 1.33 ± 0.33. In the case of SIQLMNVFDQVVSQASIKHG, the amyloid nucleation score is reported as “inactive”. Work on SIRCLIREKA yielded an amyloid nucleation score of -0.238 ± 0.75. SIRLVLRFLTA gave an amyloid nucleation score of -0.166 ± 0.46. Work on SIRMGSEVRSDNEMVMRWQM yielded an amyloid nucleation score of 3.67 ± 0.16. For SIRSVLFVSTVDDTPPYQGF, the amyloid nucleation score was “inactive”. Substance SIRVSDYQRVFNNIGMSNCN has an amyloid nucleation score of -0.454 ± 0.53. With SISNPRSLLYVSRSYNSDEF the amyloid nucleation score was -0.956 ± 0.8. For SISNTLLGLEEWLPNYVNVF, the amyloid nucleation score was 0.871 ± 0.49. For SITVVSNEFNVVNVILCGCY, the amyloid nucleation score was 7.009 ± 0.046. SIYCGDTQDVVPIVSHLSNL showed an amyloid nucleation score of 0.187 ± 0.29. In the case of SKEFPHMYFFGVRFVVVTKV, the amyloid nucleation score is reported as -0.246 ± 0.45. In the case of SKFIYRRLKELFVFGYSIVT, the amyloid nucleation score is reported as “inactive”. With SKKSSRDLNSTSGRR the amyloid nucleation score was -0.808 ± 1.4. Work on SKLMTRVTVWLGSYGRGSWH yielded an amyloid nucleation score of 0.629 ± 0.83.
